Measurements from patent US9994644B2, “mAB 2 anti-Met antibody” (Agency for Science, Technology and Research, priority 2013, dated 2018).
“Also recorded” adds a separate entry of the source.

Key:
[1] = test system: caspase activation in SNU-5 cells; assay: Caspase-Glo 3/7 caspase activation assay; format: cell-based, human; details: SNU-5, 72 hrs; mAb 10 μg/mL, SU11274 5 μM
Procedure: In order to determine if these antibodies have any physiological effects on tumour cells, 10 μg/mL of mAb was added to SNU-5 cells. […] This indicates SU11274 mode of mechanism is by activation of caspase which in turn result in apoptosis of SNU-5 tumour cells.
CellTiter-Glo® luminescent cell viability assay and Caspase-Glo® 3/7 Assay (Promega, U.S.A.) were used to determine cell viability and caspase activation respectively. SNU-5 cells (1×10^5 cells) were seeded in each 96-well and treated for 72 hrs before analysis. Cell viability and caspase activation were performed according to manufacturer's protocol. Luminescence was read using the EnVision plate reader (PerkinElmer, U.S.A.).

[2] = test system: c-Met α-chain peptides; assay: Pepscan ELISA-based epitope mapping; format: binding, human; set-up: mAb 2 binding to peptide O27: dose or concentration left out as unconfirmed; details: absorbance at 450 nm
Procedure: (§1) Identifying the region of c-Met bound by the antibody is important in determining whether the antibody might be able to block c-Met from binding to its ligand, HGF. Using an ELISA-based assay (Pepscan), synthesised peptides were added to strepatvidin-coated plates and antibody binding to their respective epitopes was determined colorimetrically. The peptides were consecutive overlapping peptides that span the entire c-Met α-chain.
(§2) Peptides that were linked to biotin by an SGSG linker sequence at the N-terminus were synthesised by Mimotopes (Australia). Peptides for Pepscan: Peptides that span the entire α-chain of c-Met were synthesised. A total of fifty-five peptides with consecutive, overlapping sequences were synthesised. […]
(§3) Variations of peptides O28 and O29, where each amino acid residue was sequentially substituted for an alanine residue, were synthesised. […] Colour change was monitored by eye and the reaction was stopped by adding 100 mM sulphuric acid. Absorbance was read at 450 nm in a microplate reader (SPECTRAmax PLUS^384, Molecular Device, U.S.A.). […] Computer imaging of the epitopes were analysed by PyMol (DeLano Scientific LLC, U.S.A.) software.
(§4) Pepscan analysis was used to determine the region of c-Met α-chain bound by mAb 2. […] Binding of the antibody was detected by colorimetric assay and analysed by absorbance reading at […].

[3] = biological target: T1, c-Met α-chain peptides (Homo sapiens, UniProt P08581); assay: Pepscan ELISA-based epitope mapping; format: binding; set-up: mAb 2 binding to peptide O27: dose or concentration left out as unconfirmed; details: absorbance at 450 nm
T1 construct: consecutive overlapping peptides that span the entire c-Met α-chain; purchased Mimotopes (Australia); host or cells: chemical synthesis
Procedure: as §1, §2, §3, §4

[4] = test system: SNU-5 cells; assay: Cell proliferation by CellTracker Green BODIPY dye retention; format: cell-based, human; details: SNU-5, 10 μg/mL mAb, 6 days
Procedure: CellTracker BODIPY dye is a membrane permeable dye that enters cells freely. Once in the cell, the dye is converted to a membrane impermeable product which labels the cell green. The dye is passed on to dividing daughter cells but is not transferable to neighbouring cells. Dividing cells would fail to retain the green dye as it is being diluted to progeny cells. Cells were treated with 10 μg/mL of monoclonal antibodies for 6 days and dye retention in cells was analysed by flow cytometry.
SNU-5 cells were stained with 5 μM of CellTracker BODIPY dye for 30 mins. Stained cells were seeded and treated with anti-α-chain c-Met monoclonal antibodies for 6 days. Cells were harvested and dye retention in live cells were analysed by flow cytometry.

mAb 2 binding to peptide O27 [3]: does not bind
B1: mAb 2: murine bivalent anti-α-chain c-Met monoclonal antibody, IgG1, kappa; CDRs SEQ ID NO: 2-7; epitope IEE and CPDC (antibody, listed as Homo sapiens)
heavy: QVQLKESGGGLVQPGGSLTLSCATSGFTFTDHYMSWVRQPPGKALEWLAFIRNKAKGYTTEYNASVRGRFTISRDNSQNIVYLQMNTLRTEDSATYYCARDGVGIAYWGQTLVTVSAAKTTPPSVYPLAP
light: SIVMTQSPLSLPVSLGDQASISCRSSQSLENINGNTYKNWYFQKPGQSPQLLIYRVSNRVSGVLDRFSGSGSGTDFTLKITRVEAEDLGVYFCLQVTHVPWTFGGGTKLEIKRADAAPTKSIS
caspase activation [1]: reduced caspase activation; also recorded: do not activate caspase activation
mAb 2 binding to peptides O28 and O29 [2]: equal affinity; also recorded: no binding preference
CellTracker Green BODIPY fluorescence retention [4]: retained significant levels of green fluorescence
